{"source": "paper PMC10705946", "about": "“^225Ac-iPSMA-RGD for Alpha-Therapy Dual Targeting of Stromal/Tumor Cell PSMA and Integrins” (International Journal of Molecular Sciences, 2023)", "key": {"[1]": {"assay": "in vivo", "experimental": "All animal procedures followed the Ethical Regulations for the Handling of Laboratory Animals (NOM-062-ZOO-1999) and the requirements of the Institutional Animal Care and Use Committee, according to an approved protocol (CICUAL-08-2018-2021). […] Mice were injected with 3.7 kBq (50 µL) of ^225Ac-iPSMA-RGD and necropsied at 1, 3, 24, 72, and 96 h (n = 3). The liver, heart, kidney, pancreas, lung, spleen, small intestine, and stomach were measured using the Francium-221 photopeak (218 keV) in a hyperpure germanium gamma spectrometer (Ortec, Atlanta, GA, USA). Results were recorded as a percentage of injected dose (%ID) per organ. Blood and bone samples were also dissected, and the associated activity was recorded as %ID/g. A second group of mice was inoculated subcutaneously with 1 × 10^6 HCT116 cells. […] Animals were necropsied on day 11 post-treatment, as described above. Radioisotopic/X-ray ex vivo images of the source organs and tumor were obtained in a preclinical imaging system (Bruker, XTREME, Billerica, MA, USA)."}, "[2]": {"assay": "Stability in saline solution (0.9% NaCl) and human serum by radio-HPLC", "format": "physicochemical", "details": "in both saline and serum", "experimental": "To evaluate the radiochemical purity, a reversed-phase HPLC system with Waters Millenium 32 software coupled to an in-line UV-Vis and radioactivity detector was used, as previously detailed. To recover free ^225Ac and ^225Ac-HEHA-iPSMA, fractions of 1.0 mL were collected, and the activity quantification was through the 218 keV-gamma emission of Fr-221 by assuming secular equilibrium."}, "[3]": {"tested_on": "HCT116 cells", "assay": "Viability (cytotoxicity) assay at 24 h", "format": "cell-based, human", "details": "2 to 4 Gy", "experimental": "Cytotoxic assays were performed in triplicate (n = 6) using HCT116 cells. After harvesting each cell line, 10,000 cells per well were placed in a 96-well plate and incubated at 37 °C to allow adherence. After 24 h, the culture medium was removed, and treatments (2 Gy, 4 Gy) were placed in each well. To deliver 2 and 4 Gy of radiation dose, 6 Bq/well and 12 Bq/well were added and exposed for 15 h. Then, the treatments were removed and replaced with the medium. The cytotoxicity was evaluated at 24 h by using the Cell proliferation assay (Roche Diagnostics GmbH, Mannheim, Germany). Statistical analysis was performed with two-way ANOVA followed by Tukey’s multiple comparisons test using GraphPad Prism 5.0 Software. Data are shown as mean ± SEM. A p < 0.05 was considered statistically significant."}, "[4]": {"tested_on": "HCT116 tumors", "assay": "Tumor size progression after treatment", "format": "in vivo, mice", "details": "37 kBq", "protocol": "A second group of mice was inoculated subcutaneously with 1 × 10^6 HCT116 cells. After the mice developed a tumor (0.220 ± 0.030 g), they were treated with 3.7 kBq (50 µL) of ^225Ac-iPSMA-RGD (n = 3) via tail vein injection. Animals were necropsied on day 11 post-treatment, as described above."}, "[5]": {"tested_on": "HCT116 cells", "assay": "Reactive oxygen species, Muse Oxidative Stress kit", "format": "cell-based, human", "details": "for M1 (ROS plot gate) / M2 (ROS plot gate): representative plot", "experimental": "Reactive oxygen species (ROS) were detected with the Muse™ Oxidative Stress kit, (Merck Millipore, Burlington, MA, USA) by measuring the produced intracellular superoxide radicals through dihydroethidium fluorescence. H2O2 (40 nM) was used as the positive control. Briefly, cells were seeded in cell culture flasks at a density of 1 × 10^6 cells and exposed to 4.5 Bq (2 Gy) and 9 Bq (4 Gy) of ^225Ac-iPSMA-RGD. Untreated cells were used as the control group. First, cells were trypsinized and suspended in 10 μL of 1X Assay Buffer. Then 190 μL of the oxidative stress reagent working solution was added to each cell suspension. The suspension was then gently vortexed and incubated at 37 °C with 5% CO2 for 30 min. Fluorescent intensities were examined by flow cytometry using a Muse Cell Analyzer (Merck Millipore, Burlington, MA, USA) and were performed in triplicate. Statistical analysis was performed with two-way ANOVA followed by Tukey’s multiple comparisons test using GraphPad Prism 5.0 Software. Data are shown as mean ± SEM. A p < 0.05 was considered statistically significant."}, "[6]": {"tested_on": "HCT116 colorectal cancer cells", "assay": "Cellular uptake and internalization, with blocked receptor assay", "format": "cell-based, human", "experimental": "The ^225Ac-iPSMA-RGD uptake was performed on HCT116, C6 and PC3 cell lines, which were selected based on their variable PSMA and RGD expression according to previous research by our group and others. Each cell line was diluted to 1 × 10^6 cells with 1 mL of PBS in tubes and incubated at 37 °C with 30 μL of ^225Ac-iPSMA-RGD (20 μL, 70 Bq) for 0.5 h, 1 h and 3 h (n = 6). At each time point, the tubes were centrifuged at 3000 rpm for 5 min and rinsed twice with PBS. The measured activity in a NaI(Tl) well-type detector in the pellet, represents the uptake and internalization. To remove the ^225Ac-iPSMA-RGD at the cell membrane level, 1 mL of 0.2 M CH3COOH /0.5 M NaCl was added and the pellet was resuspended. The tubes were then centrifuged and washed with PBS twice (this activity is considered internalization)."}, "[7]": {"assay": "Absorbed radiation dose estimation (N and dose, OLINDA 2.0)", "format": "in vivo, athymic mice", "text": "The %ID/organ data were used to calculate the biokinetic models. […] The ^225Ac decay chain was considered for dosimetry. […] DF (dose factor, mGy/MBq) values were obtained from OLINDA 2.0 code (Dose, Gy = NxDF)."}, "[8]": {"details": "mice, day 11 after treatment"}}}
{"compound": "N=C(N)NCCC[C@@H]1NC(=O)[C@H](CCCCNC(=O)CCCN2C(=O)CC(SC[C@H](NC(=O)c3ccc(NNC(=S)Nc4ccc(CC5CN(CC(=O)O)CCN(CC(=O)O)CCN(CC(=O)O)CCN(CC(=O)O)CCN(CC(=O)O)CCN5CC(=O)O)cc4)nc3)C(=O)N[C@@H](Cc3ccc4ccccc4c3)C(=O)NCCCC[C@H](NC(=O)N[C@@H](CCC(=O)O)C(=O)O)C(=O)O)C2=O)NC(=O)[C@@H](Cc2ccccc2)NC(=O)[C@H](CC(=O)O)NC(=O)CNC1=O", "note": "(stereo partly drawn) [^225Ac-iPSMA-RGD, ^225Ac-HEHA-HYNIC-iPSMA-RGD, metal not drawn]", "values": [{"measurement": "Biodistribution pattern", "setting": "[1]; healthy mice", "value": "rapid blood clearance with hepatobiliary and renal elimination and no accumulation in other tissue"}, {"measurement": "tissue uptake", "setting": "[1]; male, Nu/Nu, mouse, bone, 3.7 kBq, total radioactivity", "value": "0.5 ± 0.3", "unit": "%ID/g"}, {"measurement": "Decrease of radiochemical purity", "setting": "[2]; 5 h after preparation", "value": 2, "unit": "%"}, {"measurement": "Decrease of radiochemical purity", "setting": "[2]; 24 h after preparation", "value": 10, "unit": "%"}, {"measurement": "Decrease of radiochemical purity", "setting": "[2]; 72 h after preparation", "value": 30, "unit": "%"}, {"measurement": "Cell viability", "setting": "[3]", "value": "dose-dependent decrease in cell viability"}, {"measurement": "Tumor size progression compared to control group (untreated mice)", "setting": "[4]; HCT116 tumor-bearing mice", "value": "significantly lower (p < 0.05)"}, {"measurement": "Tumor size compared to ^225Ac-RGD and ^225Ac-PSMA groups", "setting": "[4]; eleven days after administration", "value": "significantly lower (p < 0.05)"}, {"measurement": "Increase of HCT116 cells with oxidative stress", "setting": "[5]; 4 Gy", "value": "approximately 30%"}, {"measurement": "M1 (ROS plot gate)", "setting": "[5]; HCT116, 2 Gy", "value": 90.14, "unit": "%"}, {"measurement": "M2 (ROS plot gate)", "setting": "[5]; HCT116, 2 Gy", "value": 9.82, "unit": "%"}, {"measurement": "M1 (ROS plot gate)", "setting": "[5]; HCT116, 4 Gy", "value": 59.30, "unit": "%"}, {"measurement": "M2 (ROS plot gate)", "setting": "[5]; HCT116, 4 Gy", "value": 40.52, "unit": "%"}, {"measurement": "Uptake and internalization, blocked vs unblocked cell receptors", "setting": "[6]; HCT116 cells, blocking with unlabeled 1 mM iPSMA, RGD and iPSMA-RGD", "value": "statistically significant difference between blocked and unblocked cell receptors"}, {"measurement": "Radiopharmaceutical uptake in colorectal cancer cells compared to C6 and PC3 cells", "setting": "[6]; HCT116 vs C6 and PC3 cells", "value": "significantly higher"}, {"measurement": "Radiation Absorbed Dose, Kidney", "setting": "[7]; athymic mice", "value": 17.63, "unit": "Gy/37 kBq"}, {"measurement": "Radiation Absorbed Dose, Liver", "setting": "[7]; athymic mice", "value": 15.85, "unit": "Gy/37 kBq"}, {"measurement": "Radiation Absorbed Dose, Tumor", "setting": "[7]; athymic mice, HCT116 tumor", "value": 237.07, "unit": "Gy/37 kBq"}, {"measurement": "Total nuclear transformations N=∫t=0t=11dAtdt, Tumor", "setting": "[7]; athymic mice, HCT116 tumor, t = 0 to 11 days", "value": 7.83, "unit": "MBq·h"}, {"measurement": "Total nuclear transformations N=∫t=0t=11dAtdt, Kidney", "setting": "[7]; athymic mice, t = 0 to 11 days", "value": 3.52, "unit": "MBq·h"}, {"measurement": "Total nuclear transformations N=∫t=0t=11dAtdt, Liver", "setting": "[7]; athymic mice, t = 0 to 11 days", "value": 5.23, "unit": "MBq·h"}, {"measurement": "Tumor-to-kidney radiation dose ratio", "setting": "[7]; mice, from Table 1", "value": "thirteen"}, {"measurement": "Tumor-to-liver radiation dose ratio", "setting": "[7]; mice, from Table 1", "value": "fifteen"}, {"measurement": "Renal or hepatic function damage", "setting": "[8]", "value": "no damage to renal or hepatic function was detected"}, {"measurement": "Serum alanine aminotransferase", "setting": "[8]", "value": "70 ± 8", "unit": "IU/L"}, {"measurement": "Serum aspartate aminotransferase", "setting": "[8]", "value": "141 ± 19", "unit": "IU/L"}, {"measurement": "Serum creatinine", "setting": "[8]", "value": "0.215 ± 0.071", "unit": "mg/dL"}]}
